US20250243261A1 (CZ BIOHUB SF, published 2025)

Legend:
[1] = molecular target: SARS-CoV-2 Beta-variant Spike with two stabilizing proline substitutions (S-2P) (SARS-CoV-2 Beta variant); assay: BLI, IgG
[2] = molecular target: T1, SARS-CoV-2 Omicron-variant receptor binding domain (RBD) (SARS-CoV-2 Omicron variant); assay: BLI, IgG
T1 construct: domain: RBD

B1: C143 WT IgG (antibody, V domains shown)
VH: EVQLVESGGGLVQPGGSLRLSCAASGFSVSTKYMTWVRQAPGKGLEWVSVLYSGGSDYYADSVKGRFTISRDNSKNALYLQMNSLRVEDTGVYYCARDSSEVRDHPGHPGRSVGAFDIWGQGTMVTVSS
VL: QSALTQPASVSGSPGQSITISCTGTSNDVGSYTLVSWYQQYPGKAPKLLIFEGTKRSSGISNRFSGSKSGNTASLTISGLQGEDEADYYCCSYAGASTFVFGGGTKLTVL
Binder B1 has a Kd [1] of 0.45 µM and a Kd [2] of 600 µM.
